Data on 94 variants can be found in the supplement of paper PMC10567573.

B1: VAMP4 (parent)
chain: FLRGPSGPRFGPRNDKIKHVQNQV
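Note: lentivirally expressed fusions sorted by FACS into six bins by GFP to DsRed ratio, PSI derived from sequencing read proportions per bin multiplied by bin number.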

In this data set the parent is B1. Description: protein stability index of a GFP-peptide fusion (GPS, HEK-293T) (PSI 1-6); higher = more stable. To be noted: c terminus: a fixed tail appended.
In the case of FLTGPSGPRFGPRNDKIKHVQNQV, the protein stability index stood at 3.25.
For FLQGPSGPRFGPRNDKIKHVQNQV, the protein stability index came out at 2.6.
As for FLYGPSGPRFGPRNDKIKHVQNQV, the figure is 1.99; as for FLWGPSGPRFGPRNDKIKHVQNQV, 2.02; as for FLVGPSGPRFGPRNDKIKHVQNQV, 2.08.
Consider FLSGPSGPRFGPRNDKIKHVQNQV, for which the protein stability index is 3.3.
As for FLRGPSLPRFGPRNDKIKHVQNQV, the figure is 2.37; as for FLRGPSIPRFGPRNDKIKHVQNQV, 3.02; as for FLRGPSDPRFGPRNDKIKHVQNQV, 2.44.
Take FLRGPSHPRFGPRNDKIKHVQNQV: the protein stability index turned out to be 2.86.
FLRGPSAPRFGPRNDKIKHVQNQV: the protein stability index worked out at 2.69.
In the case of FLRGPSKPRFGPRNDKIKHVQNQV, the protein stability index is 2.32.
With FLRGPSPPRFGPRNDKIKHVQNQV, the protein stability index amounted to 3.24.
For FLRGPSEPRFGPRNDKIKHVQNQV, the protein stability index worked out at 2.79.
As for FLRGPSTPRFGPRNDKIKHVQNQV, the protein stability index was 2.66.
Turning to FLRGPSNPRFGPRNDKIKHVQNQV, the protein stability index is 2.74.
FLRGPSMPRFGPRNDKIKHVQNQV: the protein stability index amounted to 2.24.
As for FLRGPSFPRFGPRNDKIKHVQNQV, the figure is 1.85.
FLRGPSRPRFGPRNDKIKHVQNQV: the protein stability index is 1.71.
As for FLRGPSQPRFGPRNDKIKHVQNQV, the protein stability index is 2.68.
Take FLRGPSVPRFGPRNDKIKHVQNQV: the protein stability index was 2.44.
As for FLRGPSYPRFGPRNDKIKHVQNQV, the figure is 1.96; as for FLRGPSCPRFGPRNDKIKHVQNQV, 2.94; as for FLRGPSSPRFGPRNDKIKHVQNQV, 2.77.
Turning to FLRDPSGPRFGPRNDKIKHVQNQV, the protein stability index turned out to be 2.99.
As to FLRHPSGPRFGPRNDKIKHVQNQV, the protein stability index was 2.85.
As for FLRTPSGPRFGPRNDKIKHVQNQV, the figure is 3.17.
As to FLRRPSGPRFGPRNDKIKHVQNQV, the protein stability index was found to be 3.22.
As for FLRAPSGPRFGPRNDKIKHVQNQV, the protein stability index came to 3.07.
FLREPSGPRFGPRNDKIKHVQNQV: the protein stability index is 3.17.
FLRWPSGPRFGPRNDKIKHVQNQV: the protein stability index came to 1.96.
Regarding FLRFPSGPRFGPRNDKIKHVQNQV, the protein stability index was found to be 2.47.
As for FLRLPSGPRFGPRNDKIKHVQNQV, the protein stability index stood at 2.59.
Take FLRQPSGPRFGPRNDKIKHVQNQV: the protein stability index is 3.2.
For FLRVPSGPRFGPRNDKIKHVQNQV, the protein stability index came to 2.6.
Take FLRIPSGPRFGPRNDKIKHVQNQV: the protein stability index was determined as 2.05.
On to FLRYPSGPRFGPRNDKIKHVQNQV, for which the protein stability index came out at 2.24.
As for FLRSPSGPRFGPRNDKIKHVQNQV, the protein stability index worked out at 3.06.
For the variant FLRPPSGPRFGPRNDKIKHVQNQV, the protein stability index came out at 3.12.
Consider FLRKPSGPRFGPRNDKIKHVQNQV, for which the protein stability index was 2.82.
For FLRMPSGPRFGPRNDKIKHVQNQV, the protein stability index amounted to 2.57.
Take FLRNPSGPRFGPRNDKIKHVQNQV: the protein stability index turned out to be 3.08.
For FLRCPSGPRFGPRNDKIKHVQNQV, the protein stability index worked out at 2.24.
Consider FLRGPSGPRFGPANDKIKHVQNQV, for which the protein stability index worked out at 2.32.
Turning to FLRGPSGPRFGPKNDKIKHVQNQV, the protein stability index stood at 2.58.
As for FLRGPSGPRFGPCNDKIKHVQNQV, the figure is 2.33.
FLRGPSGPRFGPNNDKIKHVQNQV: the protein stability index came to 3.74.
Next, FLRGPSGPRFGPMNDKIKHVQNQV: 2.89; FLRGPSGPRFGPHNDKIKHVQNQV: 2.17.
With FLRGPSGPRFGPLNDKIKHVQNQV, the protein stability index is 2.02.
As for FLRGPSGPRFGPENDKIKHVQNQV, the figure is 3.15; as for FLRGPSGPRFGPGNDKIKHVQNQV, 2.74.
Consider FLRGPSGPRFGPFNDKIKHVQNQV, for which the protein stability index came out at 2.35.
For the variant FLRGPSGPRFGPINDKIKHVQNQV, the protein stability index was determined as 2.43.
Next, FLRGPSGPRFGPDNDKIKHVQNQV: 3.39; FLRGPNGPRFGPRNDKIKHVQNQV: 2.43; FLRGPFGPRFGPRNDKIKHVQNQV: 2.64.
Consider FLRGPWGPRFGPRNDKIKHVQNQV, for which the protein stability index is 1.29.
Next, FLRGPQGPRFGPRNDKIKHVQNQV: 2.56; FLRGPCGPRFGPRNDKIKHVQNQV: 2.03; FLRGPYGPRFGPRNDKIKHVQNQV: 2.11.
As for FLRGPMGPRFGPRNDKIKHVQNQV, the figure is 2.86.
Take FLRGPRGPRFGPRNDKIKHVQNQV: the protein stability index stood at 2.92.
Regarding FLRGPKGPRFGPRNDKIKHVQNQV, the protein stability index was 2.65.
FLRGPIGPRFGPRNDKIKHVQNQV: the protein stability index was determined as 1.97.
As to FLRGPPGPRFGPRNDKIKHVQNQV, the protein stability index came out at 2.79.
In the case of FLRGPGGPRFGPRNDKIKHVQNQV, the protein stability index was 2.49.
As to FLRGPLGPRFGPRNDKIKHVQNQV, the protein stability index is 1.54.
FLRGPTGPRFGPRNDKIKHVQNQV: the protein stability index worked out at 2.77.
Regarding FLRGPEGPRFGPRNDKIKHVQNQV, the protein stability index was found to be 3.94.
Consider FLRGPDGPRFGPRNDKIKHVQNQV, for which the protein stability index turned out to be 2.95.
As for FLRGPHGPRFGPRNDKIKHVQNQV, the protein stability index came out at 2.45.
Turning to FLRGPVGPRFGPRNDKIKHVQNQV, the protein stability index is 2.12.
As for FLRGPAGPRFGPRNDKIKHVQNQV, the protein stability index amounted to 2.76.
Regarding FLRGPSGPRWGPRNDKIKHVQNQV, the protein stability index was 2.09.
Take FLRGPSGPRVGPRNDKIKHVQNQV: the protein stability index came out at 2.67.
For the variant FLRGPSGPRTGPRNDKIKHVQNQV, the protein stability index is 3.36.
For the variant FLRGPSGPRNGPRNDKIKHVQNQV, the protein stability index came out at 2.95.
For the variant FLRGPSGPRYGPRNDKIKHVQNQV, the protein stability index came out at 2.27.
Turning to FLRGPSGPRSGPRNDKIKHVQNQV, the protein stability index was determined as 2.86.
As for FLRGPSGPRCGPRNDKIKHVQNQV, the figure is 2.53; as for FLRGPSGPRDGPRNDKIKHVQNQV, 3.15.
For the variant FLRGPSGPRLGPRNDKIKHVQNQV, the protein stability index amounted to 3.21.
As for FLRGPSGPRRGPRNDKIKHVQNQV, the figure is 3.15.
As for FLRGPSGPRHGPRNDKIKHVQNQV, the protein stability index was 3.07.
For the variant FLRGPSGPREGPRNDKIKHVQNQV, the protein stability index was determined as 3.29.
For the variant FLRGPSGPRIGPRNDKIKHVQNQV, the protein stability index was determined as 2.99.
For the variant FLRGPSGPRPGPRNDKIKHVQNQV, the protein stability index was found to be 3.02.
For the variant FLRGPSGPRAGPRNDKIKHVQNQV, the protein stability index is 2.72.
With FLRGPSGPRGGPRNDKIKHVQNQV, the protein stability index stood at 2.89.
Next, FLRGPSGPRKGPRNDKIKHVQNQV: 2.57; FLRGPSGPRMGPRNDKIKHVQNQV: 3.24.
For FLRGPSGPRQGPRNDKIKHVQNQV, the protein stability index is 3.14.
Turning to FLRGGSGPRFGPRNDKIKHVQNQV, the protein stability index was 2.43.
